Results as given in patent EP4676958A2 (dated 2026).

Biological target: T1, active human KLK7 (human, UniProt P49862 30-253)
T1 construct: mature; also called hKLK7; active form of hKLK7
Experiment: SPR, antibody captured on Protein A chip, 20 nM hKLK7 (FIG. 11A, 11F)

T1 sequence (P49862 30-253): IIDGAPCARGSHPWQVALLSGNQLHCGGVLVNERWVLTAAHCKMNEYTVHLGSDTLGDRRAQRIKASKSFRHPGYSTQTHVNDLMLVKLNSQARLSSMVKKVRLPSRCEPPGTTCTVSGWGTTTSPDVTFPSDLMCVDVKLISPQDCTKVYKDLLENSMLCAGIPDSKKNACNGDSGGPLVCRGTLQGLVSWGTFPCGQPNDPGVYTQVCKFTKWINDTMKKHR

binding result: binds
B1: KLK7-L1-Ab8 (antibody, V domains shown)
VH: QVQLVQSGAEVKKPGASVKVSCKASGYTFTSEGIHWVRQAPGQGLEWMGSISASSGDTNYAQKLQGRVTMTTDTSTSTAYMELRSLRSDDTAVYYCARSAGYGARHWYFDLWGQGTMVTVSS
VL: DIQMTQSPSSLSASVGDRVTITCRASQSISSYLNWYQQKPGKAPKLLIYGASSLQSGVPSRFSGSGSGTDFTLTISSLQPEDFATYYCDQWYSTPPITFGGGTKVEIK
notes: captured on Protein A; also called KLK7-Ll-Ab8; KLK7- Ll-Ab8
